Assay results reported in PMC9601805, “Characterization of the Escherichia coli pyridoxal 5′‐phosphate homeostasis protein (YggS): Role of lysine residues in PLP binding and protein stability” (Protein Science : A Publication of the Protein Society, 2022).

Columns and labels:
E. coli ΔyggS = assay: 4dPN sensitivity assay and complementation by YggS variants in trans; assay type: cell-based, Escherichia coli; details: for complementation of the 4dPN sensitivity phenotype of ΔyggS: expression in trans, M9 0.4% glucose, 1 μM PN, 20 μl of 25 mM 4dPN
Protocol: Bacteria were grown in Luria‐Bertani (LB; Tryptone 10 g L^− 1, Yeast extract 5 g L^− 1, NaCl 10 g L^− 1) or M9 minimal medium (Cold Spring Harbor Protocols, Cold Spring Harbor, NY) at 37°C, unless otherwise specified. Growth media were solidified with agar (16 g L^− 1; Fisher Scientific) for the preparation of plates. 4dPN toxicity assays were performed on thin (20 ml) M9 minimal medium plates containing 0.4% glucose (carbon source), ampicillin (100 μg ml^−1), 1 μM PN, and 0.02% or 0.2% arabinose when appropriate.
Wild‐type yggS was amplified by PCR with primers DH596 and DH598 from E. coli BW25113 and cloned in pBAD24 using restriction sites SphI and NcoI to give pBY291.3. The pBY291.3 plasmid and its derivatives were then used as templates with the NEB Q5 Site‐Directed Mutagenesis Kit and the primer pairs indicated in Table S4 to introduce site‐directed residue mutant constructs. All constructs were verified by sequencing and transformed into E. coli wild‐type (BW25113) and ΔyggS (VDC6594) electrocompetent cells for use in physiological studies. Plasmid transformations were performed following standard procedures and protein expression from each construct was confirmed by SDS‐PAGE and western blot analysis.
Three isolated colonies of each strain were inoculated into 5 ml LB Amp 200 μg ml^− 1 and incubated at 37°C and 200 rpm overnight. Overnight cultures were diluted 1:500 into 5 ml fresh LB Amp 200 μg ml^− 1 ± 0.02% or 0.2% arabinose and grown at 37°C, shaking. Once cultures reached midlog growth (OD600 of 0.4–0.7) samples were taken from each culture for western blot analysis (below) then cells were again incubated until stationary growth was reached (~6 hr). Cells were harvested by centrifugation then washed twice with and resuspended in 1x PBS. Optical density of washed cells was measured at 600 nm in 1 ml cuvettes (Fisher Scientific) using a BioSpec‐mini DNA/RNA/Protein analyzer (Shimadzu Biotech) and each strain was normalized to an OD600 of 0.006 in 3 ml 1x PBS. […]

apo‐YggS = target: T1, apo‐YggS (Escherichia coli, UniProt P67080); assay: biochemical; assay type: binding; details: WT apo-YggS
T1 construct: made in house; host or cells: E. coli HMS174(DE3)
Protocol: Equilibrium binding analyses were carried out by measuring the decrease of protein intrinsic fluorescence observed upon the addition of increasing PLP concentrations to a fixed concentration of apo‐YggS (Figure 1b).
Dissociation constants were calculated from saturation curves obtained measuring the protein fluorescence emission intensity as a function of increasing PLP concentration. […] Fluorescence emission spectra were recorded from 310 to 450 nm upon excitation at 280 nm. Excitation and emission slits were set at 3 and 5 nm, respectively.

[1] = Covalent (Schiff base) PLP binding judged by absorption spectra; details: ~416–420 nm band
Protocol: Our strategy was to start from the K36A variant and gradually add further variations so as to obtain all possible combinations of double, triple, and quadruple variants. Variations of the last two residues at the C‐terminal end of the protein, K233 and K234, were always introduced together and are therefore considered as a single K233A/K234A variation.
All spectroscopic measurements were carried out at 20°C in 20 mM NaHEPES pH 7.5. UV–visible spectra were recorded with a Hewlett‐Packard 8453 diode‐array spectrophotometer. Far‐UV (190–250 nm) and Near‐UV–visible (250–500 nm) CD spectra were measured with a Jasco 710 spectropolarimeter equipped with a DP 520 processor using 0.1‐cm (far‐UV) or 1‐cm path length quartz cuvettes and results were expressed as ellipticity [Θ]. Absorption spectra of WT and variant forms were deconvoluted into their component bands using Metzler's band‐shape analysis method.[22]

[2] = Differential scanning fluorimetry (DSF), apparent Tm of YggS forms; assay type: physicochemical; details: for T m (°C) Apo +2 μM PLP: 2 μM protein + 2 μM (equimolar) PLP; for T m (°C) Apo + 300 μM PLP: 2 μM protein + 300 μM PLP; for T m (°C) Apo: apo-form, 2 μM protein, no PLP
Protocol: Differential scanning fluorimetry (DSF) assays were performed on a Real Time PCR Instrument (CFX Connect Real Time PCR system, Bio‐Rad, Hercules, CA). In a typical experiment, 2 μM WT and variant apo‐YggS forms in 50 mM NaHEPES, pH 7.5, 50 mM NaCl, and Sypro Orange (5x, Thermo Scientific) were mixed with various ligands (total volume of 25 μl) in a 96‐well PCR plate. Fluorescence was measured from 25°C to 95°C in 0.4°C/30 s steps (excitation 450–490 nm; detection 560–580 nm). All samples were run in triplicate. Denaturation profiles were analyzed as described in Nardella et al.[40]

[3] = PLP binding equilibrium of YggS WT and variant forms, intrinsic fluorescence change; details: E. coli YggS form 0.1 μM, 50 mM NaHEPES pH 7.6, 25°C, excitation 280 nm; mean ± SEM; read-out: K D (nM) of the PLP binding equilibrium
Protocol: Analyses took advantage of YggS intrinsic fluorescence decrease observed upon binding of PLP. Dissociation constants were calculated from saturation curves obtained measuring the protein fluorescence emission intensity as a function of increasing PLP concentration. Fluorescence emission measurements were carried out at 25°C, in 50 mM NaHEPES buffer at pH 7.6 with a FluoroMax‐3 Jobin Yvon Horiba spectrofluorometer, using a 1‐cm path length quartz cuvette. All analyzed YggS forms were used at a final subunit concentration of 0.1 μM. Fluorescence emission spectra were recorded from 310 to 450 nm upon excitation at 280 nm. Excitation and emission slits were set at 3 and 5 nm, respectively. Emission fluorescence values between 330 and 340 nm were averaged and analyzed using the following quadratic equation to obtain K D value: (1) Frel=Finf−F0×PLP+[YggS]+KD−PLP+[YggS]+KD^2−4[YggS]PLP/2/[YggS]+F0

apo‐eSHMT = apo‐eSHMT (Escherichia coli, UniProt P0A825); details: for PLP transfer kinetics compared with WT YggS: transfer to apo-SHMT
Protocol: We set up a novel in vitro discontinuous assay in which PLP transfer from holo‐YggS to the apo‐form of eSHMT could be followed (see Section 4 for details). In this assay, the increase in SHMT activity is measured as PLP dissociates from holo‐YggS and binds to apo‐SHMT, forming the catalytically active holo‐SHMT. […] The binding kinetics of free PLP to either apo‐YggS or apo‐SHMT was measured by manually mixing 20 μM free PLP with 20 μM of protein, observing the formation of the internal aldimine at 420 nm.
WT Holo‐YggS (20 μM with respect to PLP) was mixed with 20 μM apo‐eSHMT in 50 mM NaHEPES buffer at pH 7.6.

[4] = 20 μM holo-YggS, 20 μM apo-SHMT, 37°C

apo‐eSHMT, sequence (P0A825 whole entry): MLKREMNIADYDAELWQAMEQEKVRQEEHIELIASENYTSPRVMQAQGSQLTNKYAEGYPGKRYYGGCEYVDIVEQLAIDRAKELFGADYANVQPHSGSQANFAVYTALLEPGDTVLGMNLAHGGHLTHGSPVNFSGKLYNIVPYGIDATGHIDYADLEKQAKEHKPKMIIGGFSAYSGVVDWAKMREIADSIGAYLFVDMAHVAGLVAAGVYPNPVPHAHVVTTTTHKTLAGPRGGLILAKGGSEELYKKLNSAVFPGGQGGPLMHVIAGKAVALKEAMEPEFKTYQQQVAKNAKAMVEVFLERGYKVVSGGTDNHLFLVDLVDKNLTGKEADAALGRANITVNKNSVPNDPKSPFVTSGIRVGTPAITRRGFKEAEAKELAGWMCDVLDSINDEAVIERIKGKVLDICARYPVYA

Molecule	4dPN sensitivity (ring of growth inhibition) (E. coli ΔyggS; 20 μl of 25 mM 4dPN in central well, M9 minimal medium with 1 μM PN)	change in fluorescence emission attributable to binding (apo‐YggS)	capability to bind PLP covalently as a Schiff base [1]	T m (°C) Apo +2 μM PLP [2]	T m (°C) Apo + 300 μM PLP [2]	T m (°C) Apo [2]	Kd [3]	T m (°C) Apo +2 μM PLP ([2]; listed as apo‐YggS)	T m (°C) Apo + 300 μM PLP ([2]; listed as apo‐YggS)	T m (°C) Apo ([2]; listed as apo‐YggS)	PLP initially bound to YggS transferred to SHMT at equilibrium (apo‐eSHMT; [4])	time to reach PLP transfer equilibrium (apo‐eSHMT; [4])	rate constant of PLP transfer (apo‐eSHMT; 20 μM holo-YggS, 20 μM apo-SHMT, 37°C, 50 mM NaHEPES pH 7.6)	complementation of the 4dPN sensitivity phenotype of ΔyggS (E. coli ΔyggS)	PLP transfer kinetics compared with WT YggS (apo‐eSHMT)
Cc1ncc(CO)c(C)c1O [4dPN, 4‐deoxypyridoxine, reference compound]	clear 4dPN sensitivity phenotype	could only be detected with PL and PNP													
ΔK233/K234: E. coli YggS variant lacking the last two C-terminal residues K233 and K234 (protein, left off: His-tag, N-terminal, state not stated) MNDIAHNLAQVRDKISAAATRCGRSPEEITLLAVSKTKPASAIAEAIDAGQRQFGENYVQEGVDKIRHFQELGVTGLEWHFIGPLQSNKSRLVAEHFDWCHTIDRLRIATRLNDQRPAELPPLNVLIQINISDENSKSGIQLAELDELAAAVAELPRLRLRGLMAIPAPESEYVRQFEVARQMAVAFAGLKTRYPHIDTLSLGMSDDMEAAIAAGSTMVRIGTAIFGARDYS			able to bind PLP as a Schiff base	73.1 ± 0.3 °C	84.0 ± 0.4 °C	61.4 ± 0.8 °C	2.8 ± 0.7 nM								
WT: recombinant His-tagged wild-type E. coli YggS, the PLP homeostasis protein (PLPHP) (protein, PLP covalently bound to Lys36 through a Schiff base linkage; left off: His-tag, end not stated, kept) MNDIAHNLAQVRDKISAAATRCGRSPEEITLLAVSKTKPASAIAEAIDAGQRQFGENYVQEGVDKIRHFQELGVTGLEWHFIGPLQSNKSRLVAEHFDWCHTIDRLRIATRLNDQRPAELPPLNVLIQINISDENSKSGIQLAELDELAAAVAELPRLRLRGLMAIPAPESEYVRQFEVARQMAVAFAGLKTRYPHIDTLSLGMSDDMEAAIAAGSTMVRIGTAIFGARDYSKK				70.8 ± 0.8 °C	82.2 ± 0.1 °C	55.1 ± 0.3 °C	1.3 ± 0.8 nM	70 °C	about 82 °C	56 °C	approximately 15%	about 30 min	0.14 ± 0.02 min⁻¹	complemented	
K36A/K38A/K137A: E. coli YggS triple lysine variant (protein, left off: His-tag, C-terminal, state not stated, E. coli YggS triple lysine variant) MNDIAHNLAQVRDKISAAATRCGRSPEEITLLAVSATAPASAIAEAIDAGQRQFGENYVQEGVDKIRHFQELGVTGLEWHFIGPLQSNKSRLVAEHFDWCHTIDRLRIATRLNDQRPAELPPLNVLIQINISDENSASGIQLAELDELAAAVAELPRLRLRGLMAIPAPESEYVRQFEVARQMAVAFAGLKTRYPHIDTLSLGMSDDMEAAIAAGSTMVRIGTAIFGARDYSKK				69.4 ± 0.1 °C	75.2 ± 1.2 °C	68.9 ± 0.2 °C	43 ± 19 nM								faster and much more extensive transfer of PLP
K137A: E. coli YggS single lysine variant K137A (protein, left off: His-tag, C-terminal, state not stated) MNDIAHNLAQVRDKISAAATRCGRSPEEITLLAVSKTKPASAIAEAIDAGQRQFGENYVQEGVDKIRHFQELGVTGLEWHFIGPLQSNKSRLVAEHFDWCHTIDRLRIATRLNDQRPAELPPLNVLIQINISDENSASGIQLAELDELAAAVAELPRLRLRGLMAIPAPESEYVRQFEVARQMAVAFAGLKTRYPHIDTLSLGMSDDMEAAIAAGSTMVRIGTAIFGARDYSKK			able to bind PLP as a Schiff base	71.5 ± 0.1 °C	82.5 ± 0.1 °C	60.3 ± 0.1 °C	1.8 ± 1.9 nM							failed to complement	same transfer kinetics as that observed with WT YggS
